Tested on: T1, JUL1 (JULGI) (Arabidopsis thaliana)
T1 sequence: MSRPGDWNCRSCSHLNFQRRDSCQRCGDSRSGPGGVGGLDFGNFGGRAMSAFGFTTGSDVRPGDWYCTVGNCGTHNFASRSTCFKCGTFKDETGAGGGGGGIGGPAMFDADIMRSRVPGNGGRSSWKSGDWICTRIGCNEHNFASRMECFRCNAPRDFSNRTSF
Assay: EMSA
Settings: method inferred from context

## SMXL5 5'UTR G-quadruplex probe
With potassium
  Kd: 130 nM
Without potassium
  Kd: 230 nM

— patent publication US20230176076
